Drawing on paper PMC8727950, this text covers stoichiometry N for one substance.

The test deals with honey bee (Apis mellifera) vitellogenin, full-length hemolymph Vg (honey bee (Apis mellifera)) (UniProt Q868N5). Put plainly: native gel or EMSA; BN-PAGE of purified Vg, two different amounts loaded; precast 3-12% acrylamide gels, 4 °C, 2 h at 150 V; no reducing agent in loading buffer or gel; monomer to dimer. A general note: In EMSA bound probe runs differently from free probe, usually more slowly.

As a reminder, the stoichiometry N is a count of units in the complex or per binding partner. In turn, “honey bee (Apis mellifera) vitellogenin, full-length hemolymph Vg (from UniProt Q868N5 17-1770) (natural protein)” came in with a stoichiometry N of 2.
